In one assay the target is T1, von Willebrand factor (human, UniProt P04275 764-2813).
T1 construct: vWF of the human plasma in which the compounds were diluted; multimeric; also called vWF; VWF
Put plainly: inhibition ELISA: ristocetin-induced binding of plasma vWF to fixed human platelets (glycoprotein Ib), bound vWF detected with anti-VWF-HRP.

In assay [1] the target is T2, human serum albumin (human, UniProt P02768 25-609).
T2 construct: also called HSA
Put plainly: SPR, Biacore 3000, HSA on CM5 chip, pH5 against pH7. As to the method: (§1) In brief, HSA and cynoSA were amine-coupled to a separate CM5 sensor chip at a density of respectively 1800RU and 1900RU. […] The three buffers used contained 50 mM phosphate, 150 mM NaCl and 0.005% surfactant P and were adjusted to either pH5, pH7 or pH8. Samples were injected at a flow-rate of 45 μL/min, association and dissociation were monitored during 120 sec and 300 sec. Binding curves were subsequently used to calculate the KD, association—and dissociation-rate constants with the BiaEvaluation software.

The target of assay [2] is T3, cynomolgus monkey serum albumin (cynomolgus monkey, UniProt A2V9Z4 25-608).
T3 construct: amine-coupled to a CM5 chip; also called CSA; cynoSA
Put plainly: SPR, Biacore 3000, cynoSA on CM5 chip, pH5 against pH7. The protocol:
as §1

The target in assay [3] is T2, human serum albumin. The experiment in a line: X-ray co-crystal structure and in silico modelling.
Method: The crystal structure was determined as follows: the purified proteins were used in crystallization trials employing both, a standard screen of approximately 1200 different conditions, as well as crystallization conditions identified using literature data. […] These conditions were also refined by systematically varying pH or precipitant concentrations. Crystals were obtained via the method of co-crystallization.
Crystals have been flash-frozen and measured at a temperature of 100K. The X-ray diffraction have been collected at the SWISS LIGHT SOURCE (SLS, Villigen, Switzerland) using cryogenic conditions. Data were processed using the programs XDS and XSCALE. The phase information necessary to determine and analyze the structure was obtained by molecular replacement. Subsequent model building and refinement was performed with the software packages CCP4 and COOT. The peptide parameterization was carried out with the program [sequence].
Assay [4] addresses T2, human serum albumin. Put plainly: SPR, BIAcore 3000, HSA on CM5 chip. The protocol:
For this purpose, the fusion proteins were expressed in E. coli TG1 cells. […] Coating of the chip (CM5) was performed by amine coupling using NHS/EDC for activation and ethanolamine for deactivation (Biacore amine coupling kit). HBS-EP was used as flow buffer at a rate of 10 μl min-1. 20 μl of sample was injected for 120 s.

T3 sequence (A2V9Z4 25-608 limits assumed): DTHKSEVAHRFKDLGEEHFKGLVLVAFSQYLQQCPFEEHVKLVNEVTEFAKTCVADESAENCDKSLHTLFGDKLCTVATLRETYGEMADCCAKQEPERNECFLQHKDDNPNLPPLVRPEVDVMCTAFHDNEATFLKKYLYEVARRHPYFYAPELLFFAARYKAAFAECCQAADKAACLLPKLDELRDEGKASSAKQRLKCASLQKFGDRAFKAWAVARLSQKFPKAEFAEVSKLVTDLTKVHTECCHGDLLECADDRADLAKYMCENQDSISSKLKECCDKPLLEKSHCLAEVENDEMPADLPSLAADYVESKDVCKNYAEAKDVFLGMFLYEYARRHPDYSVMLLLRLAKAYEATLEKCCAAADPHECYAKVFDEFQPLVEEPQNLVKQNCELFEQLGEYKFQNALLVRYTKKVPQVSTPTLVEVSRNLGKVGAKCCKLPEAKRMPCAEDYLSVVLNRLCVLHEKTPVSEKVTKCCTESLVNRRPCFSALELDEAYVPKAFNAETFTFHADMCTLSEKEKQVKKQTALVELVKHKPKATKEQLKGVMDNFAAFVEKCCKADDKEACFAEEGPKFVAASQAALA

B1: 12A2 sv1-AAA-12A2 sv1-9GS-59C2 (VHH)
chain: DVQLVESGGGLVQPGGSLRLSCAASGRTFSYNPMGWFRQAPGKGRELVAAISRTGGSTYYPESVEGRFTISRDNAKRTVYLQMNSLRAEDTAVYYCAAAGVRAEQGRVRTLPSEYTFWGQGTQVTVSSAAAEVQLVESGGGLVQPGGSLRLSCAASGRTFSYNPMGWFRQAPGKGRELVAAISRTGGSTYYPESVEGRFTISRDNAKRTVYLQMNSLRAEDTAVYYCAAAGVRAEQGRVRTLPSEYTFWGQGTQVTVSSGGGGSGGGSRDWDFDVFGGGTPVGG
notes: bivalent anti-vWF Nanobody with one C-terminal 59C2 peptide; also called vWF-0055; vWF 0055
Turning to B1, the “IC50 (read off the curve)” value in the assay with von Willebrand factor is about 10 nM. In addition, the “fold decrease of affinity at pH5” value (with human serum albumin [1]; in assay [2]) was about 10 fold each time.

B2: peptide of SEQ ID NO: 143 (peptide)
peptide: AAARYWDYDVFGGGTPVGGAAA
notes: 56E4 with one additional N-terminal and three C-terminal alanines; used for the co-crystal with HSA; also called peptide based on EXP56E4
In the case of B2, the binding result with human serum albumin [3] is “binds”.

B3: 2D3-56H5 fusion protein (other)
chain: EVQLVESGGSLVQPGGSLRLSCAASGFTFDDYAMSWVRQVPGKGLEWVSSINWSGTHTDYADSVKGRFTISRNNANNTLYLQMNSLKSEDTAVYYCAKNWRDAGTTWFEKSGSAGQGTQVTVSSGGGGSGGGSAAAFYDDYDVFGGGTPAGGAAAEQKLISEEDLNGAAHHHHHH
In the assay with human serum albumin [4], B3 displayed a Kd of about 1200 nM, a dissociation rate constant (koff) of 0.0093 s⁻¹ and an on-rate (kon) of 7570 M⁻¹ s⁻¹.
